Earlier results in paper PMC5806463.

Molecular target: IL-18BP (Homo sapiens) (UniProt O95998)
Sequence (O95998 31-194): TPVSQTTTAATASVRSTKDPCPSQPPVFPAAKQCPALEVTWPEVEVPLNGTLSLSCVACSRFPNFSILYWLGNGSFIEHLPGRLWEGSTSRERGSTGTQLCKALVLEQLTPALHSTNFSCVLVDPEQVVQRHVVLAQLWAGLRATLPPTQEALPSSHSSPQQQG

IL-18, sequence (Q14116 37-193): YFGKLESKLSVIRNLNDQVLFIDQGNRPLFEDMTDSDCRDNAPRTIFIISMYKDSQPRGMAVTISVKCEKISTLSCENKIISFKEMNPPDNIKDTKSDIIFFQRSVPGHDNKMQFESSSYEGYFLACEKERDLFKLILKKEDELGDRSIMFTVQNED

Which Kd does the source give for IL-18 (from UniProt Q14116) here?
The Kd was 0.4 nM.
